Here are results for 1 substance from patent US20220025056A1.

The target in test [1] is ILT-2_6xHis recombinant protein (human) (UniProt Q8NHL6). In words: Octet BLI, antibody on anti-mouse Fc sensor, soluble ILT2 analyte. Background: BLI is a label-free optical method that tracks binding on a fibre tip over time.
Test [2] has as its target human ILT2 (LILRB1) expressed at the surface of transfected cells (human) (UniProt Q8NHL6). In words: flow cytometry, CHO-ILT2 cells. (In general: In flow cytometry, cells or beads pass a laser one at a time.)

Sequence of ILT-2_6xHis recombinant protein (human) (Q8NHL6 other isoform, or with tags, fused parts or gaps limits assumed): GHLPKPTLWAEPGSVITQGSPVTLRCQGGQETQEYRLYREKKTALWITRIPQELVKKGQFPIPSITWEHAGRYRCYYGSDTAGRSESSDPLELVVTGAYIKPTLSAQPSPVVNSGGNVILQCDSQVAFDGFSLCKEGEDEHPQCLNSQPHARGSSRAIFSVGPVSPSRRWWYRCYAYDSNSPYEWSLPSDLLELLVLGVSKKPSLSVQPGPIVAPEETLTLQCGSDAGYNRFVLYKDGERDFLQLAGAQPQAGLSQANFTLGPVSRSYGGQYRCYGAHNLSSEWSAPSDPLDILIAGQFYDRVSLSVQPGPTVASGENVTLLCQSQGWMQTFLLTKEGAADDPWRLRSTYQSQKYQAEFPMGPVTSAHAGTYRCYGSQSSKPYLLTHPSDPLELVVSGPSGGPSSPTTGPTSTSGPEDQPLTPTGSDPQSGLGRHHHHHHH
Sequence of human ILT2 (LILRB1) expressed at the surface of transfected cells (human) (Q8NHL6 24-650): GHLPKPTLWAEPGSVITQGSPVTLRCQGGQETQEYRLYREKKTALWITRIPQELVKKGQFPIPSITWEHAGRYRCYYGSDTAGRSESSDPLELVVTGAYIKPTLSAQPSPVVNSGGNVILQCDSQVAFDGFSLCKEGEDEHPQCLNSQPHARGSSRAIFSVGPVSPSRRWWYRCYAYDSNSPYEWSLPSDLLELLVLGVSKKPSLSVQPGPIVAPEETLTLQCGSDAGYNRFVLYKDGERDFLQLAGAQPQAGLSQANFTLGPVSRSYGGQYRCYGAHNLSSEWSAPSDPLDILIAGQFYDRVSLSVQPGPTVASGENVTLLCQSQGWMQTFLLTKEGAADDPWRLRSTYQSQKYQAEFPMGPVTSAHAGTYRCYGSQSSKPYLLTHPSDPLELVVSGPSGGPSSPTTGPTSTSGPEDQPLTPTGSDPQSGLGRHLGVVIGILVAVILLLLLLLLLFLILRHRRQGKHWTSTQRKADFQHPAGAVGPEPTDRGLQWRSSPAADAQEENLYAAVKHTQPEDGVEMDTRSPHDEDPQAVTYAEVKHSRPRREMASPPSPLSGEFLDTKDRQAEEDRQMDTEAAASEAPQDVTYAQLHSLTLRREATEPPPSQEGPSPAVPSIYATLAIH

For GHI/75 (antibody), in test [1], the Kd was 0.0281 µM, the off-rate (koff) stood at 0.00038 s⁻¹ and the association rate constant (kon) was found to be 13000 M⁻¹ s⁻¹. The EC50 in test [2] is 5.39 µg/mL.

By Kd is commonly meant a measure of binding affinity in units of concentration. A word on the koff: it is the rate constant with which the complex falls apart. By kon is commonly meant the second-order rate constant of association. In general, EC50 refers to the midpoint of the concentration-response curve. Low readings indicate a more potent agent, high ones a less potent agent.
